From patent US20250376520A1 (SINGAPORE HEALTH SERVICES PTE, published 2025)

Biological target: human TRPM4 (transient receptor potential melastatin 4) channel, myc-tagged, expressed in HEK 293 cells (human, UniProt Q8TD43 1-1214)
Experiment: cell-based or functional assay

Chain of human TRPM4 (transient receptor potential melastatin 4) channel, myc-tagged, expressed in HEK 293 cells (Q8TD43 whole entry): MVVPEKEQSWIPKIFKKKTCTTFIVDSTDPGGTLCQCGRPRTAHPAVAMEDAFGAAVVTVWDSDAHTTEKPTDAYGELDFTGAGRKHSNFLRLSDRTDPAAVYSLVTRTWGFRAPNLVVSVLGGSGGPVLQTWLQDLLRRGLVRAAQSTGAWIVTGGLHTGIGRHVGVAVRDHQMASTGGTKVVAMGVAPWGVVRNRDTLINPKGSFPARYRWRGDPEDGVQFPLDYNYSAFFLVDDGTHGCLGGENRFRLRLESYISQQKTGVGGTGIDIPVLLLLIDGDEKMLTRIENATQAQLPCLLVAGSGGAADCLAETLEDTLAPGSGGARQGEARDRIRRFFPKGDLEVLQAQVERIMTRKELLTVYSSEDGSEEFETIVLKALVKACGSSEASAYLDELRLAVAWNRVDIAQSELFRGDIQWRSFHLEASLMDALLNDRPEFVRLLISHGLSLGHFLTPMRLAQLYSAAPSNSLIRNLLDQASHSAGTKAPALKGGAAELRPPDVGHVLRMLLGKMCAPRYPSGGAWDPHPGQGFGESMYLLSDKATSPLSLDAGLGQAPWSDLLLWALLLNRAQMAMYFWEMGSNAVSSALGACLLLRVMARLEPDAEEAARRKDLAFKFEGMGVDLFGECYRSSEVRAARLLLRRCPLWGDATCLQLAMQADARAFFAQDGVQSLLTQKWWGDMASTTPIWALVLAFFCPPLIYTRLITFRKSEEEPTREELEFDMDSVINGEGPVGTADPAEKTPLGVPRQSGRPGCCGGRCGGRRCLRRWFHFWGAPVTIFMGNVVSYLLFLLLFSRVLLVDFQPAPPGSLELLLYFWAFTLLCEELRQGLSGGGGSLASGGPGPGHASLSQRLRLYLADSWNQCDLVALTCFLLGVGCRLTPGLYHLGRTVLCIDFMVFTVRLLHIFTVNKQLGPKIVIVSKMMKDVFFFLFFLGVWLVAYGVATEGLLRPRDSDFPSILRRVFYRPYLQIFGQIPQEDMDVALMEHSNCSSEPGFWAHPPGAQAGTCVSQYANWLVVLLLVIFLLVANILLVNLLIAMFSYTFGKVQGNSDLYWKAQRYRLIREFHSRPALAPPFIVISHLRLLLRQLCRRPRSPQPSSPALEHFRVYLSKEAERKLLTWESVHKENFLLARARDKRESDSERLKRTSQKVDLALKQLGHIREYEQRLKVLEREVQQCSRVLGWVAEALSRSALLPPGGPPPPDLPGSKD

B1: humanized anti-TRPM4 antibody clone A6 (VH2 + VL1), renamed M4H (antibody, human IgG1, kappa, V domains shown)
VH: QVQLQESGPGLVKPSQTLSLTCTVSGYSITSDYAWNWIRQHPGKGLEWMGYLSYSGVTSYNPSLKGRVTISRDTSKNQFSLKLSSVTAADTAVYYCARKGTYYRYEGSYWYFDVWGQGTTVTVSS
VL: DIQMTQSPSSLSASVGDRVTITCHANQNIDVWLSWYQQKPGKAPKLLIYKTSNLHTGVPSRFSGSGSGTDFTFTISSLQPEDIATYYCQQGQSYPLTFGGGTKLEIKR
- IC50, dose-dependent inhibition of hypoxia-induced TRPM4 current increase: 1.04 µg/mL
